B1: murine OPG binding protein (full length, 316 aa, encoded by clone 32D-F3), on the cell surface (ligand)
chain: MRRASRDYGKYLRSSEEMGSGPGVPHEGPLHPAPSAPAPAPPPAASRSMFLALLGLGLGQVVCSIALFLYFRAQMDPNRISEDSTHCFYRILRLHENAGLQDSTLESEDTLPDSCRRMKQAFQGAVQKELQHIVGPQRFSGAPAMMEGSWLDVAQRGKPEAQPFAHLTINAASIPSGSHKVTLSSWYHDRGWAKISNMTLSNGKLRVNQDGFYYLYANICFRHHETSGSVPTDYLQLMVYVVKTSIKIPSSHNLMKGGSTKNWSGNSEFHFYSINVGGFFKLRAGEEISIQVSNPSLLDPDQDATYFGAFKVQDID
notes: Type II transmembrane protein; also called OPGbp; OPG-bp
B2: chimeric ATAR extracellular domain-Fc fusion protein (Fc fusion, UniProt Q92956 39-202, looked up)
chain: LPSCKEDEYPVGSECCPKCSPGYRVKEACGELTGTVCEPCPPGTYIAHLNGLSKCLQCQMCDPAMGLRASRNCSRTENAVCGCSPGHFCIVQDGDHCAACRAYATSSPGQRVQKGGTESQDTLCQNCPPGTFSPNGTLEECQHQTKCSWLVTKAGAGTSSSHWV
notes: extracellular domain; also called sATAR-Fc; ATAR-Fc fusion protein; not shown: human IgG1 Fc domain
B3: recombinant human OPG [22-201]-Fc fusion protein (Fc fusion, UniProt O00300 22-201, looked up)
chain: ETFPPKYLHYDEETSHQLLCDKCPPGTYLKQHCTAKWKTVCAPCPDHYYTDSWHTSDECLYCSPVCKELQYVKQECNRTHNRVCECKEGRYLEIEFCLKHRSCPPGFGVVQAGTPERNTVCKRCPDGFFSNETSSKAPCRKHTNCSVFGLLLTQKGNATHDNICSGNSESTQKCGIDVTL
notes: construct described in U.S. Ser. No. 08/706,945; also called OPG-Fc; OPG Fc fusion protein; not shown: human IgG1 Fc domain
B4: recombinant mouse OPG [22-194]-Fc fusion protein (Fc fusion, UniProt O08712 22-194, looked up)
chain: ETLPPKYLHYDPETGHQLLCDKCAPGTYLKQHCTVRRKTLCVPCPDHSYTDSWHTSDECVYCSPVCKELQSVKQECNRTHNRVCECEEGRYLEIEFCLKHRSCPPGSGVVQAGTPERNTVCKKCPDGFFSGETSSKAPCIKHTNCSTFGLLLIQKGNATHDNVCSGNREATQK
notes: also called OPG-Fc; not shown: Fc domain, detected with anti-human IgG

Legend:
purified human IgG1 Fc = molecular target: T1, purified human IgG1 Fc (human, UniProt P01857-1 104-330 = IgG part, limits assumed); assay: staining of 32D cells, FACS
T1 construct: domain: Fc
Procedure: Cell lines that grew as adherent cultures in vitro were treated using the following methods: Cells were plated into 24 well tissue culture plates (Falcon), then allowed to grow to approximately 80% confluency. The growth media was then removed, and the adherent cultures were washed with phosphate buffered saline (PBS) (Gibco) containing 1% fetal calf serum (FCS). […] The OPG-Fc fusion protein solution was discarded, and the cells were washed in PBS-FCS solution as described above. The cultures were then exposed to phycoeyrthrin-conguated goat F(ab′) anti-human IgG secondary antibody (Southern Biotechnology Associates Cat. # 2043-09) diluted into PBS-FCS. After a 30-45 min incubation at 0° C., the solution was discarded, and the cultures were washed as described above. The cells were then analyzed by immunofluorescent microscopy to detect cell lines which express a cell surface OPG binding protein.
Suspension cell cultures were analyzed in a similar manner with the following modifications: The diluent and wash buffer consisted of calcium- and magnesium-free phosphate buffered saline containing 1% FCS. […] The cells were then analyzed by fluorescence activated cell sorting (FACS) using a Becton Dickinson FACscan.

[1] = molecular target: B1; assay: immunostaining of COS-7 cells transfected with 32D-F3
Procedure: Arrayed pools of 32D cDNA expression library were individually lipofected into COS-7 cultures, then assayed for the acquisition of a cell surface OPG binding protein. To do this, COS-7 cells were plated at a density of 1×10⁶ per ml in six-well tissue culture plates (Costar), then cultured overnight in DMEM (Gibco) containing 10% FCS. Approximately 2 μg of plasmid DNA from each pool was diluted into 0.5 ml of serum-free DMEM, then sterilized by centrifugation through a 0.2 μm Spin-X column (Costar). Simultaneously, 10 μl of Lipofectamine (Life Technologies Cat # 18324-012) was added to a separate tube containing 0.5 ml of serum-free DMEM. The DNA and Lipofectamine solutions were mixed, and allowed to incubate at RT for 30 min. The COS-7 cell cultures were then washed with serum-free DMEM, and the DNA-lipofectamine complexes were exposed to the cultures for 2-5 hr at 37° C. After this period, the media was removed, and replaced with DMEM containing 10% FCS. The cells were then cultured for 48 hr at 37° C.
Using this approach, a total of approximately 300,000 independent 32D cDNA clones were screened, represented by 300 transfected pools of 1000 clones each. A single well was identified that contained cells which acquired the ability to be specifically decorated by the OPG-Fc fusion protein. […]

[2] = molecular target: B1; assay: staining of 32D cells with 5 ug/ml OPG-Fc and PE anti-human IgG, FACS

Row | binding result [2] | Binder | further results
1 |  | B1 | binding result (purified human IgG1 Fc): no binding
2 |  | B2 | binding result [1]: no binding
3 | binds | B3 | 
4 | binds | B4 | 
